This is an account of results in patent US20110142851A1 (EMERGENT PRODUCT DEVELOPMENT SEATTLE, published 2011).

The target of one assay is T1, recombinant human IL6 (human, UniProt P05231 30-212).
T1 construct: also called rhIL6; IL6 monomer
The experiment in a line: SPR Biacore T100, binder captured by anti-human Fc. (Surface plasmon resonance follows binding to a sensor surface in real time, without labels.)

Assay [1] concerns the target T2, hu HIL6 Fc dimer (dimeric human HIL6/mouse IgG Fc fusion protein) (human).
T2 construct: also called human hyper-IL6 (IL6R-IL6-mIgG); dimeric HIL6
T2 chain: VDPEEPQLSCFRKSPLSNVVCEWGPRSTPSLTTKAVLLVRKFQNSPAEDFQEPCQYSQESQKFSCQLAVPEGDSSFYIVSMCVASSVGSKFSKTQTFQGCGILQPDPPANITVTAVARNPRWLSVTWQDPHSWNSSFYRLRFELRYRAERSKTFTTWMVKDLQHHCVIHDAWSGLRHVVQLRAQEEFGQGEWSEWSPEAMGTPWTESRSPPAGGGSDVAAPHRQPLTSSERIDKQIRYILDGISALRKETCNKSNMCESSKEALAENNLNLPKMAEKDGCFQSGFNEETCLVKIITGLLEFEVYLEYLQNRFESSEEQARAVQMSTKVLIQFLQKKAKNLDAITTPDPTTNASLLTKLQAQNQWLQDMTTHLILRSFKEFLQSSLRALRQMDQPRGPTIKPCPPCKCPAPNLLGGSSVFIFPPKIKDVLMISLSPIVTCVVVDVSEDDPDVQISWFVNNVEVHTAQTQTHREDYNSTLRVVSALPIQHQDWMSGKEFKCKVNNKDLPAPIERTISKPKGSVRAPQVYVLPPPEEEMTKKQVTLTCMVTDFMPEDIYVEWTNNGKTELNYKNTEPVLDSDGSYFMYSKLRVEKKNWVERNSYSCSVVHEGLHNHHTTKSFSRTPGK
Briefly: SPR Biacore T100, binder captured by anti-human Fc.

Another assay concerns the target T3, hu HIL6 AFH monomer (human).
T3 chain: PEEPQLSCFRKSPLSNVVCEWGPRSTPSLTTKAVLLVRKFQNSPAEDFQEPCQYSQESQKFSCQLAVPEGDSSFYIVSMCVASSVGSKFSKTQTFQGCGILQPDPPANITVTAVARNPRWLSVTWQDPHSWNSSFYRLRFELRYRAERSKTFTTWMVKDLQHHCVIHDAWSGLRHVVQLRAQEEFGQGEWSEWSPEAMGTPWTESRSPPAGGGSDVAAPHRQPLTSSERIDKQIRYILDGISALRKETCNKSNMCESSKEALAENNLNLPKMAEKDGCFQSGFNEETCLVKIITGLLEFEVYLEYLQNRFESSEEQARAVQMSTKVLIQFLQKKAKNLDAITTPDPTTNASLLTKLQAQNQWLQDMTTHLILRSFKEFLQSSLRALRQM
Briefly: SPR Biacore T100, binder captured by anti-human Fc.

The target in the next assay is T4, sIL6R Fc dimer (UniProt P08887 20-358, limits assumed).
T4 construct: not shown: Fc
T4 sequence (looked up): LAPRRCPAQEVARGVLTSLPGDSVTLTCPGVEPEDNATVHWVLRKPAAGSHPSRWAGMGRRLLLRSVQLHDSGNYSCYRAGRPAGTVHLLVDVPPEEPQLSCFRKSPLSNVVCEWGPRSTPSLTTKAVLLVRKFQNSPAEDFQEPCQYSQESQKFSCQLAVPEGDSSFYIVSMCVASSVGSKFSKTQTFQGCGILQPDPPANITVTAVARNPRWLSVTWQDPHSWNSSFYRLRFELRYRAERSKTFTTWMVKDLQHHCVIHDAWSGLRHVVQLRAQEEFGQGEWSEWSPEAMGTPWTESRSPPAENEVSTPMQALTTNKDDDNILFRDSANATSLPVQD
The experiment in a line: SPR Biacore T100, binder captured by anti-human Fc.

Assay [2] deals with T5, recombinant human soluble IL6 receptor (human, UniProt P08887 20-358).
T5 construct: also called sIL6R; sIL-6R
T5 sequence (looked up): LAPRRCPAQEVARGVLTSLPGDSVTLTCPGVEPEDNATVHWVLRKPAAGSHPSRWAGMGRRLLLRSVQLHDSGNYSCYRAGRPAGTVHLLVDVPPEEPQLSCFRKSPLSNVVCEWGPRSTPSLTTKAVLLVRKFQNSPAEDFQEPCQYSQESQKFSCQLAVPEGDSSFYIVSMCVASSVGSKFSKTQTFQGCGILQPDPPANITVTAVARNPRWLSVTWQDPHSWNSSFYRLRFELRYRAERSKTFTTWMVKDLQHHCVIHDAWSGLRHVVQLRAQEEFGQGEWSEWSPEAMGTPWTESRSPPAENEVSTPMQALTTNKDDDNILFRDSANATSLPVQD
Briefly: ELISA, Xceptor captured by anti-human Fc.

Another assay addresses T6, recombinant human TNF-α (human, UniProt P01375 77-233).
T6 construct: also called rhTNFα
Briefly: ELISA, Xceptor captured by anti-human Fc.

T6 sequence (P01375 77-233 limits assumed): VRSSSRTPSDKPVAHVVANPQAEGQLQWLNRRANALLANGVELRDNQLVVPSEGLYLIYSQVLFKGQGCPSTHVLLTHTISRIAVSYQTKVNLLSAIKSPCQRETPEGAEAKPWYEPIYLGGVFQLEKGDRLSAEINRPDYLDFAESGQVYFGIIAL

B1: TRU(X6T)-1019 (Fc fusion)
chain: EVQLLESGGGLVQPGGSLRLSCAASGFTFSWYLMHWVRQAPGKGLEWVSGIWPSGGHTLYADSVKGRFTISRDNSKNTLYLQMNSLRAEDTAVYYCAREPLLWFGELSYNWFDPWGQGTLVTVSSGGGGSGGGGSGGGGSQDIQMTQSPSSVSASVGDRVTITCRASQGISSWLAWYQQKPGKAPKLLIYAASSLQSGVPSRFSGSGSGTDFTLTISSLQPEDFATYYCQQANSFPLTFGGGTKVEIKTGEPKSSDKTHTCPPCPAPEAAGAPSVFLFPPKPKDTLMISRTPEVTCVVVDVSHEDPEVKFNWYVDGVEVHNAKTKPREEQYNSTYRVVSVLTVLHQDWLNGKAYACAVSNKALPAPIEKTISKAKGQPREPQVYTLPPSRDELTKNQVSLTCLVKGFYPSDIAVEWESNGQPENNYKTTPPVLDSDGSFFLYSKLTVDKSRWQQGNVFSCSVMHEALHNHYTQKSLSLSPGQRHNNSSLNTRTQKARHSPNSLPAQVAFTPYAPEPGSTCRLREYYDQTAQMCCSKCSPGQHAKVFCTKTSDTVCDSCEDSTYTQLWNWVPECLSCGSRCSSDQVETQACTREQNRICTCRPGWYCALSKQEGCRLCAPLRKCRPGFGVARPGTETSDVVCKPCAPGTFSNTTSSTDICRPHQICNVVAIPGNASMDAVCTSTSPTRSMAPGAVHLPQPVSTRSQHTQPTPEPSTAPSTSFLLPMGPSPPAEGSTGD
For the molecule B1, the Kd – broadly, a measure of binding affinity in units of concentration – with recombinant human IL6 is 0.57 nM; in assay [1], 300 nM; in the assay with hu HIL6 AFH monomer it was 1.9 nM. Besides, the figures for the binding result (in the assay with sIL6R Fc dimer; in assay [2]; with recombinant human TNF-α) were “no binding (tested: 100 nM)”, “no binding (tested: 75 pM sIL-6R)” and “binds”, respectively.

B2: TRU(XT6)-1019 (Fc fusion)
chain: LPAQVAFTPYAPEPGSTCRLREYYDQTAQMCCSKCSPGQHAKVFCTKTSDTVCDSCEDSTYTQLWNWVPECLSCGSRCSSDQVETQACTREQNRICTCRPGWYCALSKQEGCRLCAPLRKCRPGFGVARPGTETSDVVCKPCAPGTFSNTTSSTDICRPHQICNVVAIPGNASMDAVCTSTSPTRSMAPGAVHLPQPVSTRSQHTQPTPEPSTAPSTSFLLPMGPSPPAEGSTGDTGEPKSSDKTHTCPPCPAPEAAGAPSVFLFPPKPKDTLMISRTPEVTCVVVDVSHEDPEVKFNWYVDGVEVHNAKTKPREEQYNSTYRVVSVLTVLHQDWLNGKAYACAVSNKALPAPIEKTISKAKGQPREPQVYTLPPSRDELTKNQVSLTCLVKGFYPSDIAVEWESNGQPENNYKTTPPVLDSDGSFFLYSKLTVDKSRWQQGNVFSCSVMHEALHNHYTQKSLSLSPGQRHNNSSLNTRTQKARHSPNSEVQLLESGGGLVQPGGSLRLSCAASGFTFSWYLMHWVRQAPGKGLEWVSGIWPSGGHTLYADSVKGRFTISRDNSKNTLYLQMNSLRAEDTAVYYCAREPLLWFGELSYNWFDPWGQGTLVTVSSGGGGSGGGGSGGGGSQDIQMTQSPSSVSASVGDRVTITCRASQGISSWLAWYQQKPGKAPKLLIYAASSLQSGVPSRFSGSGSGTDFTLTISSLQPEDFATYYCQQANSFPLTFGGGTKVEIK
notes: Xceptor, TNFRSF1B ectodomain N-terminal, anti-IL6xR domain C-terminal
As to B2, the values for the Kd (in the assay with recombinant human IL6; in assay [1]; with hu HIL6 AFH monomer) were 1 nM, 5.7 nM and 17 nM, respectively. The binding result with sIL6R Fc dimer is reported as “no binding (tested: 100 nM)”; in assay [2] it was “no binding (tested: 75 pM sIL-6R)”; with recombinant human TNF-α, “binds”.

B3: TRU(XT6)-1058 (Fc fusion)
chain: LPAQVAFTPYAPEPGSTCRLREYYDQTAQMCCSKCSPGQHAKVFCTKTSDTVCDSCEDSTYTQLWNWVPECLSCGSRCSSDQVETQACTREQNRICTCRPGWYCALSKQEGCRLCAPLRKCRPGFGVARPGTETSDVVCKPCAPGTFSNTTSSTDICRPHQICNVVAIPGNASMDAVCTSTSPTRSMAPGAVHLPQPVSTRSQHTQPTPEPSTAPSTSFLLPMGPSPPAEGSTGDTGEPKSSDKTHTCPPCPAPEAAGAPSVFLFPPKPKDTLMISRTPEVTCVVVDVSHEDPEVKFNWYVDGVEVHNAKTKPREEQYNSTYRVVSVLTVLHQDWLNGKAYACAVSNKALPAPIEKTISKAKGQPREPQVYTLPPSRDELTKNQVSLTCLVKGFYPSDIAVEWESNGQPENNYKTTPPVLDSDGSFFLYSKLTVDKSRWQQGNVFSCSVMHEALHNHYTQKSLSLSPGQRHNNSSLNTRTQKARHSPNSEVQLLESGGGLVQPGGSLRLSCAASGFTFSMYTMHWVRQAPGKGLEWVSWISPSGGWTKYADSVKGRFTISRDNSKNTLYLQMNSLRAEDTAVYYCAVSPWGGPFDYWGQGTLVTVSSGGGGSGGGGSGGGGSQDIQMTQSPSTLSASVGDRVTITCRASQSISSWLAWYQQKPGKAPKLLIYKASTLESGVPSRFSAGGSGTEFTLTISSLQPDDFGTYYCQQYNSYSLTFGGGTKVEII
notes: as for B2
Take B3: the binding result in assay [2] was “no binding (tested: 75 pM sIL-6R)”; with recombinant human TNF-α it was “binds”.

B4: TRU(XT6)-1013 (Fc fusion)
chain: LPAQVAFTPYAPEPGSTCRLREYYDQTAQMCCSKCSPGQHAKVFCTKTSDTVCDSCEDSTYTQLWNWVPECLSCGSRCSSDQVETQACTREQNRICTCRPGWYCALSKQEGCRLCAPLRKCRPGFGVARPGTETSDVVCKPCAPGTFSNTTSSTDICRPHQICNVVAIPGNASMDAVCTSTSPTRSMAPGAVHLPQPVSTRSQHTQPTPEPSTAPSTSFLLPMGPSPPAEGSTGDTGEPKSSDKTHTCPPCPAPEAAGAPSVFLFPPKPKDTLMISRTPEVTCVVVDVSHEDPEVKFNWYVDGVEVHNAKTKPREEQYNSTYRVVSVLTVLHQDWLNGKAYACAVSNKALPAPIEKTISKAKGQPREPQVYTLPPSRDELTKNQVSLTCLVKGFYPSDIAVEWESNGQPENNYKTTPPVLDSDGSFFLYSKLTVDKSRWQQGNVFSCSVMHEALHNHYTQKSLSLSPGQRHNNSSLNTRTQKARHSPNSEVQLLESGGGLVQPGGSLRLSCAASGFTFSGYVMGWVRQAPGKGLEWVSSISPSGGYTLYADSVKGRFTISRDNSKNTLYLQMNSLRAEDTAVYYCARAFSTRWYWGAFDIWGQGTMVTVSSGGGGSGGGGSGGGGSQDIQMTQSPATLSLSPGERATLSCRASQSVRSYLAWYQQKPGQAPRLLIYDASNRATGIPARFSGSGSGTDFTLTITSLQPEDIATYYCQQYDNLPLTFGGGTKVEIK
notes: as for B2
With B4, the binding result with recombinant human IL6 and with sIL6R Fc dimer was “no binding (tested: 100 nM)” each time. The Kd in assay [1] was 270 nM; with hu HIL6 AFH monomer, 190 nM.
